Measured values as given in publication PMC6854080, “Increased Mosquito Midgut Infection by Dengue Virus Recruitment of Plasmin Is Blocked by an Endogenous Kazal-type Inhibitor” (iScience, 2019).

Target: T1, recombinant AaTI (Aedes aegypti Kazal-type serine protease inhibitor) (Aedes aegypti, UniProt Q177W0 23-91)
T1 construct: recombinant protein of 9.85 kDa inclusive of His-tag; also called rAaTI; wild-type rAaTI; source: bacterial system, purified
T1 sequence (looked up): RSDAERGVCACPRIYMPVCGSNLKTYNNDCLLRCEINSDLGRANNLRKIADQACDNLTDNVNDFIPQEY
Experiment: BLI; rAaTI-preloaded biosensors immersed into plasmin solutions of different concentrations; association and dissociation curves fitted globally to 1:1 kinetics
Details: both partners purified

B1: human plasmin (enzyme)
chain 1: KVYLSECKTGNGKNYRGTMSKTKNGITCQKWSSTSPHRPRFSPATHPSEGLEENYCRNPDNDPQGPWCYTTDPEKRYDYCDILECEEECMHCSGENYDGKISKTMSGLECQAWDSQSPHAHGYIPSKFPNKNLKKNYCRNPDRELRPWCFTTDPNKRWELCDIPRCTTPPPSSGPTYQCLKGTGENYRGNVAVTVSGHTCQHWSAQTPHTHNRTPENFPCKNLDENYCRNPDGKRAPWCHTTNSQVRWEYCKIPSCDSSPVSTEQLAPTAPPELTPVVQDCYHGDGQSYRGTSSTTTTGKKCQSWSSMTPHRHQKTPENYPNAGLTMNYCRNPDADKGPWCFTTDPSVRWEYCNLKKCSGTEASVVAPPPVVLLPDVETPSEEDCMFGNGKGYRGKRATTVTGTPCQDWAAQEPHRHSIFTPETNPRAGLEKNYCRNPDGDVGGPWCYTTNPRKLYDYCDVPQCAAPSFDCGKPQVEPKKCPGR
chain 2: VVGGCVAHPHSWPWQVSLRTRFGMHFCGGTLISPEWVLTAAHCLEKSPRPSSYKVILGAHQEVNLEPHVQEIEVSRLFLEPTRKDIALLKLSSPAVITDKVIPACLPSPNYVVADRTECFITGWGETQGTFGAGLLKEAQLPVIENKVCNRYEFLNGRVQSTELCAGHLAGGTDSCQGDSGGPLVCFEKDKYILQGVTSWGLGCARPNKPGVYVRVSRFVTWIEGVMRNN
modifications: active two-chain plasmin (Lys-plasmin limits from the UniProt chain features; the paper prints none), heavy and light chains joined by interchain disulfides; natural glycosylation
Work on B1 yielded a Kd of 62.8 nM.
